According to patent US20180002425A1:

Experiments:
[1] = molecular target: TpoR-IL6ST chimeric receptor on HEK293T SIE-bla reporter cells (clone CR2-9) (human) (UniProt P40238); test: cell-based or functional assay
[2] = molecular target: wild-type human TpoR on Ba/F3-hMpl cells (human) (UniProt P40238); test: cell-based or functional assay
[3] = molecular target: granulocyte colony stimulating factor receptor (UniProt Q99062)
Chain of granulocyte colony stimulating factor receptor (Q99062 25-836 limits assumed): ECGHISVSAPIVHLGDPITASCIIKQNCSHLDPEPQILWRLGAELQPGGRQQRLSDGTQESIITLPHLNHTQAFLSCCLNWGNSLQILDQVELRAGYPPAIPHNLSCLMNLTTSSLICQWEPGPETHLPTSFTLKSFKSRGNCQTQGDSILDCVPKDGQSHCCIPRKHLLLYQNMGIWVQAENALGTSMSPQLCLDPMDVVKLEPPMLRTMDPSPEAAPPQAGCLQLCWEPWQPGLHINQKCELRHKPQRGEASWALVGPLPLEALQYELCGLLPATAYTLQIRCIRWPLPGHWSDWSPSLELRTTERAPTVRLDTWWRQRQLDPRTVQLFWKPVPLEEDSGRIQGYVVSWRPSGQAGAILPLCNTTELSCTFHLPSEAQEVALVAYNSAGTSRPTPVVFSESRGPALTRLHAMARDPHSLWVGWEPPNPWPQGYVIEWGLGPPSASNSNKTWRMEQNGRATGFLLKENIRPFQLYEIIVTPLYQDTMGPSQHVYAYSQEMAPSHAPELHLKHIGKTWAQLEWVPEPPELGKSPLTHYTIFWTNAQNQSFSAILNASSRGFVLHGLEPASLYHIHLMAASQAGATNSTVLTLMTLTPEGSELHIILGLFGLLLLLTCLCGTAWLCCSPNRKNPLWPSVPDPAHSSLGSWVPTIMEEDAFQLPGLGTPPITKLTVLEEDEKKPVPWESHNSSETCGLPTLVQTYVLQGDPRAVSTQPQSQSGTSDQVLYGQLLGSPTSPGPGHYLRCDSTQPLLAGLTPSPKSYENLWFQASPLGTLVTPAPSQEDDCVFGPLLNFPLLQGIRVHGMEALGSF

EC50, short-term fluorescence (FRET beta-lactamase) reporter assay [1] [nM] | EC50, long-term proliferation assay (MTS) of Ba/F3-hMPL cells [2] [nM] | Responsive Population (fraction of reporter cells in the gate, Pacific Blue-A against AmCyan-A, FRET beta-lactamase reporter; unit not given) [3] | Substance
0.02 | 0.07 | – | Thrombopoietin (from UniProt P40225 22-353) (ligand)
– | – | 84.2 | granulocyte colony stimulating factor (from UniProt P09919 31-204) (ligand)
